Source: patent US9127075B2, “Analgesic active peptide VGG, preparation and use thereof” (priority 2010, dated 2015)
Like-named read-outs stand apart in the source and are kept apart here.

Columns and labels:
[1] = tested on: mouse twisting model induced by acetic acid; assay type: in vivo
Protocol: 1. In Vivo Analgesic Activity in Mouse Twisting Model Induced by Acetic Acid.
In mouse twisting model: The glacial acetic acid as the chemical irritant is injected into the mouse stomach, which causes a deep and large area and lasting pain stimulus for animal which has a “twist body” reaction, such as abdominal cove, torso and legs spread out, hip high up.
Equal numbers of male and female mice, whose weight were about […], were divided into groups by random. Each group consisted of eight mice. 0.2 ml/20 g of 0.6% (v/v) of acetic acid, which caused visceral pain, was intraperitoneally injected after the test sample was injected into the stomach of mouse for 20 minutes. The writhing times of the mouse were recorded for 10 min after the acetic acid was injected for 5 min. […] The inhibition of writhing response inhibition for each test group was calculated by the following formula: […]

[2] = tested on: mouse hot plate analgesic method; assay: In vivo assay of analgesic activity, hot plate method of mice; conditions: 0.1 mg/kg i.v. via tail, hot plate 55±0.5° C.; for B, average response time after medicine taken: before 21 ± 4.2 s
Protocol: 2. In Vivo Assay of Analgesic Activity—Hot Plate Method of Mice
This example is used to verify the in vivo biological activity for the analgesic activity of analgesic active peptide VGG with […].
The mouse hot plate analgesic method: the female mice with weight from 18 g to 22 g were put a hot plate at temperature of 55±0.5° C. which was maintained by a water bath. The licking times were recorded plate as the pain threshold of mouse after it was put onto the hot plate. The pain threshold between 10-30 seconds was considered to be qualified for experiments. The qualified mice were divided into groups by random. The normal pain reaction time of mouse was determined for two times. The mean of the pain threshold (B) was calculated before medicine was taken. The analgesic active peptide VGG (dosage of 0.1 mg/kg (test sample/mouse weight) was intravenously injected via tail. The normal saline was used as control group. The pain reaction time was recorded as one at 15, 30, 45, 60 […] after the test sample was taken. The mouse was immediately taken out if it had no pain response on the hot plate in 60 seconds. The 60 seconds as a calculation unit, the pain threshold increasing percentage was calculated by the following formula: A=(B−C)/C×100% • A—Pain threshold increasing percentage • B—Average response time after medicine taken • C—Average response time before medicine taken

B1: analgesic active peptide VGG (protein, listed as Mesobuthus martensi)
chain: VKDGYIADDRNCPYFCGRNAYCDGECKKNRAESGYCQWASKYGNACWCYKLPDDARIMKPGRCNGG
B1 was tested, and the “inhibition of the animal writhing” value ([1]; purest analgesic active peptide VGG, dosage 0.1 mg/kg) was no less than 60%, the “inhibition of the animal writhing” value ([1]; various purity, isolated from scorpion venom or scorpion tails or scorpion body, dosage 0.1 mg/kg-1.0 mg/kg) was no less than 50% and the “A, pain threshold increasing percentage” value ([2]; 10 min) was 128%. For the same molecule, the “B, average response time after medicine taken” value (from here on “B, average response time”) ([2]; 10 min) was 48 ± 3.2 s, the “A, pain threshold increasing percentage” value ([2]; 15 min) was 138% and the “B, average response time” value ([2]; 15 min) was 50 ± 5.1 s. The “A, pain threshold increasing percentage” value ([2]; 30 min) was 114%, the “B, average response time” value ([2]; 30 min) was 45 ± 3.7 s and the “A, pain threshold increasing percentage” value ([2]; 45 min) was 100%. The “B, average response time” value ([2]; 45 min) was 42 ± 6.9 s, the “A, pain threshold increasing percentage” value ([2]; 60 min) was 90% and the “B, average response time” value ([2]; 60 min) was 40 ± 3.5 s.
